The values below come from article PMC3211009, “A Novel Cold-Adapted Lipase from Sorangium cellulosum Strain So0157-2: Gene Cloning, Expression, and Enzymatic Characterization” (International Journal of Molecular Sciences, 2011).

Broadly, the Km is the substrate concentration at which the rate is half of its maximum. For orientation: kcat means the number of substrate molecules converted per active site and unit of time at saturation. The term kcat/Km denotes the turnover number divided by the Michaelis constant.

Assay in all cases: purified protein
Format in all cases: biochemical, Sorangium cellulosum
Settings in all cases: 50 mM Tris-HCl pH 8.0, 30 °C

Substrate in data set [1]: CC(=O)Oc1ccc([N+](=O)[O-])cc1
Substrate in data set [2]: CCCCCCCCCC(=O)Oc1ccc([N+](=O)[O-])cc1
Substrate in data set [3]: CCCCCCCC(=O)Oc1ccc([N+](=O)[O-])cc1
Substrate in data set [4]: CCCCCCCCCCCC(=O)Oc1ccc([N+](=O)[O-])cc1
Substrate in data set [5]: CCCC(=O)Oc1ccc([N+](=O)[O-])cc1

B1: r-LipA (Sorangium cellulosum) (protein)
chain: MPADTFTFQADDGRELFVYRWLPDDGARGIFHIAHGMSEHAGRYARLAHALSAAGWAVYANDHRGHGRTARERGELGFFASQGGFQRVVRDLAALIAREQEAHPGLPVVLFGHSMGSSLVQEYLIERGGSIQGAVLSGSSGKPSPLVDAGRLVARAERRRLGERGKSQLLQSMSFDSFNKLFAPARTPFDWLSRDRAEVDGYIADPCCGFPATVSLWIDLLDAMVDIARPERQARIPKDLPVYVFSGSRDPVGGPLRSVTQMIEAYRAAGLRRVTPRIYPGGRHEMLNEINREEVVRDLLAWLDAEVKTEAAPARPARPSAGAAAG
notes: pET-22b(+) NdeI/HindIII, His-tag (C-terminal by vector and stop-less reverse primer), E. coli BL21(DE3), Ni-NTA; tryptic peptides GELGFFASQGGFQR, SVTQMIEAYR; GHSMG at 112-116, Ser114/Asp250/His284
For B1, the Michaelis-Menten constant (Km) in the data set “purified protein [1]” stood at 0.174 ± 0.006 mM; in the data set “purified protein [2]”, 1.664 ± 0.047 mM; in the data set “purified protein [3]” it was 0.704 ± 0.026 mM; in “purified protein [4]”, 1.946 ± 0.059 mM; in “purified protein [5]”, 0.366 ± 0.211 mM. Moreover, the turnover number (kcat) in the data set “purified protein [1]” was 29.2 ± 0.977 s⁻¹; in the data set “purified protein [2]”, 1.56 ± 0.036 s⁻¹; in “purified protein [3]”, 3.29 ± 0.114 s⁻¹; in “purified protein [4]”, 1.21 ± 0.032 s⁻¹; in the data set “purified protein [5]” it was 13.6 ± 0.735 s⁻¹. The kcat/Km in “purified protein [1]” is 168000 ± 2100 M⁻¹ s⁻¹; in “purified protein [2]”, 940 ± 5 M⁻¹ s⁻¹; in the data set “purified protein [3]”, 4677 ± 13 M⁻¹ s⁻¹; in the data set “purified protein [4]”, 619 ± 2 M⁻¹ s⁻¹; in “purified protein [5]”, 37170 ± 128 M⁻¹ s⁻¹.
